B1: iCADM3_3R1-L8 VHH-hG4PE(R409K) (Fc fusion, not shown: a dimerising Fc or GST)
chain: QVQLVESGGGLVQPGGSLRLSCAASGRTFSNYARGWFRQAPGKEREFVAAIDYSGGSTNYADSAKGRFTISRDNAKNTVYLQMNSLKPGDTAVYYCAAPASRRPSWDADGYDYWGQGTQVTVSS
B2: iCADM3_3R1-L11 VHH-hG4PE(R409K) (Fc fusion, not shown: a dimerising Fc or GST)
chain: QVQLVESGGGLVQAGGSLRLSCAASGSIFSFNAMGWYRQAPGKQRGLVAVITSGGYTNYADSVKGRFTITRDNAKNTVYLQMNSLKPEDTAVYYCNAEGVYSDYVIMNYWGQGTQVTVSS
B3: iCADM3_3R1-L10 VHH-hG4PE(R409K) (Fc fusion, not shown: a dimerising Fc or GST)
chain: QVQLVESGGGLVQAGGSLRLSCAASGSIFSIHAMGWYRQAPGKQRELVATVTSGGSTNYADSVKGRFTISRDNAKNTVYLQMNSLKPEDTAVYYCNAETPYYSSTYYTNYWGQGTQVTVSS
B4: anti-AVM antibody (antibody, V domains shown)
VH: EVQLVESGGGLVQPGRSLKLSCAASGFTFSNYAMAWVRRAPTKGLEWVASISNGGGNTYYRDSVKGRFTISRDDAKNTLYLQMDSLRSEDTATYYCARHGNYIYYGSFFDYWGQGVMVTVSS
VL: QFVLSQPNSVSTNLGSTVKLSCKRSTGNIGSNYVSWYQQHEGRSPTTMIYRDDKRPDGVPDRFSGSIDRSSDSALLTINNVQTEDEADYFCQSYSSGINIFGGGTKLTVLG
B5: CADM3102 scFv-hG4PE (Fc fusion)
VH: QMQLVQSGAEVKKPGSSVKVSCKASGGTFSSYAISWVRQAPGQGLEWMGGIIPMSGTANYAQKFQGRVTITADESTSTAYMELSSLRSEDTAVYYCARVEESGWYDHYHGMDVWGQGTTVTVSS
VL: DVVMTQSPLSLPVTPGEPASISCTSSQSLLYSNGFNYLDWYLQKPGQSPQLLIYLGSNRASGVPDRFSGSGSGTDFTLKISRVEAEDVGVYYCMQALTTHPTFGGGTKVDIK
B6: CADM301 scFv-hG4PE (Fc fusion)
VH: QVQLVQSGAEVRRPGTSVKVSCKASGYSFTSYDINWVRLATGQGLEWMGWMNPNTGDTGSPQKFQDRVTMTRDISTGTAYLELRGLKSEDTAIYYCARGFLVTAYTAEFFPHWGQGTLVTVSS
VL: SYVLTQPPSVSVAPGKTARLTCGGNNIGSKSVHWYQQRPGQAPVLVINYDSDRPSGIPERFSGSNSENTATLTISRVEAGDEADYYCQVWDSGSDHVVFGGGTQLIIL
B7: iCADM3_3R1-L5 VHH-hG4PE(R409K) (Fc fusion, not shown: a dimerising Fc or GST)
chain: QVQLVESGGGLVQAGGSLRLSCAASGSIVSVNAMGWYRQAPGKQRELVATITSGGSTNYADSAKGRFTISRDNAKNTMYLQMNSLKPEDTAVYYCNGEFWSRRDTRPPGVVNYWGQGTQVTVSS

The target of the test is monkey CADM3 (cynomolgus monkey). In words: flow cytometry, 10 ug/mL, monkey CADM3/Expi293F vs parent Expi293F cells.
monkey CADM3 (cynomolgus monkey), sequence (Q8N126 25-398 S206N limits assumed, form in doubt): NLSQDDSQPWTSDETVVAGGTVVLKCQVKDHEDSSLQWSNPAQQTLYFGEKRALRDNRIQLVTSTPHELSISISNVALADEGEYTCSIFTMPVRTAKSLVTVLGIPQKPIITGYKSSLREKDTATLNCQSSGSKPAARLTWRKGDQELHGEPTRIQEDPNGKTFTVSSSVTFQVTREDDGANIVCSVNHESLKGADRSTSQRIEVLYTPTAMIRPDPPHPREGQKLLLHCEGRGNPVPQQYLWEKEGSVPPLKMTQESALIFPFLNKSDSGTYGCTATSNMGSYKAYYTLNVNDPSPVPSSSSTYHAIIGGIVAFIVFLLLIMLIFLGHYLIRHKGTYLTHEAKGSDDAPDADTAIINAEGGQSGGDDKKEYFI
With B1, the Mean fluorescence intensity ratio worked out at 6.91. For the molecule B2, the Mean fluorescence intensity ratio turned out to be 35.3. For B3 the value was 36.5; for B4, 1.02; for B5, 51.5. With B6, the Mean fluorescence intensity ratio was found to be 5.72.

On to B7, for which the Mean fluorescence intensity ratio is 26.6.

Values taken from patent US20210147541A1.
